Measured values as given in US20210024604A1, “NOVEL INSULIN DERIVATIVES” (Novo Nordisk A/S, priority 2009, published 2021).

What was measured:
[1] = target: T1, human serum albumin (Homo sapiens, UniProt P02768); assay: Elution from immobilized human serum albumin column; shift in retention time with glucose in eluent; assay type: binding; details: retention time with no glucose vs 50 mM glucose in eluent, HSA column
T1 construct: purchased Chromtech Inc HSA 50.3 column
Description: The glucose sensitivity of insulin albumin binding can be determined by tuning glucose levels in the elution buffer and determine the shift in retention time as a function of the glucose concentration, table 1 below.
T 37° C., flow 0.7 mL/min, 20 uL of 10 uM samples, UV monitor 220 nm.
Compounds marked with an asterix were eluted with a gradient to 70% buffer B.

[2] = rat, in vivo, iv
[3] = pH 7.4, 37° C., gradient to 50% buffer B

Row | Substance | Δ Rt ([1]; marked *: eluted with a gradient to 70% buffer B) [min] | Δ Rt [1, 3] [min] | elimination compared with insulin of example 24 [2]
1 | A22M-15-(3,5-Diboronobenzoylamino)pentadecanoyl B29M-15-(3,5-diboronobenzoylamino)pentadecandioyl A22K desB30 Human Insulin [Example 16] | 0.7 |  | 
2 | B29M-{4-[16-(3-Boronobenzenesulfonylamino)hexadecanoylsulfamoyl]butanoyl} desB30 Human Insulin [Example 14] |  | 0.8 | 
3 | B29N^ε-16-(2,3-Difluoro-4-boronobenzoylamino)hexadecanoyl A14E B25H des B30 Human Insulin [Example 22] |  | 1.5 | eliminated faster
4 | B29N^ε-16-(2,3-Difluoro-4-boronobenzoylamino)hexadecanoyl desB30 Human Insulin [Example 6] |  | 2.8 | 
5 | B29N^ε-16-(2,3-Difluoro-4-boronobenzoylamino)hexadecanoyl-γ-L-glutamyl desB30 Human Insulin [Example 4] |  | 1.8 | 
6 | B29N^ε-16-(2,6-Difluoro-4-boronobenzoylamino)hexadecanonyl desB30 Human Insulin [Example 9] |  | 2.5 | 
